Test results reported in article doi:10.1101/2024.06.05.597462 (bioRxiv, 2024).
Like-named read-outs stand apart in the source and are kept apart here. Each block holds one molecule with its values, some of them ahead of it.

Legend:
Test in all cases: fluorescence correlation spectroscopy
[1] = target: Arc NTD-linker-SNAP
[2] = target: the molecule itself
[3] = target: the molecule itself; remark: listed apart in the source

stoichiometry N [1]: 4
Molecule: Arc NTD-linker-SNAP (domain or fragment)

B1: Arc-FL-C-EGFP (natural protein)
chain: MELDHMTTGGLHAYPAPRGGPAAKPNVILQIGKCRAEMLEHVRRTHRHLLTEVSKQVERELKGLHRSVGKLENNLDGYVPTGDSQRWKKSIKACLCRCQETIANLERWVKREMHVWREVFYRLERWADRLESMGGKYPVGSEPARHTVSVGVGGPEPYCQEADGYDYTVSPYAITPPPAAGELPEQESVGAQQYQSWVPGEDGQPSPGVDTQIFEDPREFLSHLEEYLRQVGGSEEYWLSQIQNHMNGPAKKWWEFKQGSVKNWVEFKKEFLQYSEGTLSREAIQRELDLPQKQGEPLDQFLWRKRDLYQTLYVDAEEEEIIQYVVGTLQPKFKRFLRHPLPKTLEQLIQRGMEVQDGLEQAAEPSVTPLPTEDETEALTPALTSESVASDRTQPE
stoichiometry N [2]: 627
stoichiometry N [3]: 4.3
